The assay has as its target T1, human TL1A (Fitzgerald #30R-AT070) (human, UniProt O95150 72-251, limits assumed).
T1 construct: Coated on the ELISA plate at 1 ug/mL; also called TNFSF15
T1 sequence (looked up): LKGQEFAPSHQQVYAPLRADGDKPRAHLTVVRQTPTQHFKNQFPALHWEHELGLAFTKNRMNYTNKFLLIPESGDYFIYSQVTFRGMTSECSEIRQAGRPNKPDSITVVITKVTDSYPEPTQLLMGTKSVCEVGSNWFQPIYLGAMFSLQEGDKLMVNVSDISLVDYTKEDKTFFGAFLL
Description: ELISA titration, coated human TL1A, culture supernatant. In general terms: In an ELISA, binding on a coated surface is turned into a signal by an enzyme label.

The values below come from patent US20260216326A1 (PROMETHEUS BIOSCIENCES, published 2026).

Where a chain is given by its changes, count along the chain named. Bounds are passed on as bounds.

B1: A115 (antibody, human IgG1, V domains shown)
VH: QVQLVQSGAEVKKPGASVKVSCKASGFDIQDTYMHWVRQAPGQGLEWMGRIEPASGHIKYDPKFQVRATMTRDTSTSTVYMELSSLRSEDTAVYYCARSGGLPDWWGQGTTVTVSS
VL: EIVLTQSPGTLSLSPGERATLSCRASSSVSYMYWYQQKPGQAPRPWIYATSNLASGIPDRFSGSGSGTDFTLTISRLEPEDFAVYYCQQWEGNPRTFGGGTKLEIK
notes: human IgG1/kappa (pFuse vectors), culture supernatant
As to B1, binding was put at a Kd of 58 pM. This counts as picomolar.

B2: A34 (antibody, human IgG1, V domains shown)
VH: B1 VH with A40R, M48I, E52D, I58T, M70I, R72T, V79A, M81L, W105V
VL: B1 VL with L13A, L21M, I57V, F70Y, L77V, E91S
notes: as for B1
In the case of B2, the Kd – broadly, a measure of binding affinity in units of concentration – is less than 50 pM.

B3: A35 (antibody, human IgG1, V domains shown)
VH: B1 VH with R38K, M48I, E52D, I58T, M70I, R72T, V79A, M81L, W105V
VL: B1 VL with L13A, L21M, I57V, F70Y, L77V, E91S
notes: as for B1
Take B3: the Kd came out at 72 pM. This counts as picomolar.

B4: A30 (antibody, human IgG1, V domains shown)
VH: B1 VH with R38K, A40R, M48I, E52D, I58T, M70I, R72T, V79A, M81L, W105V
VL: B1 VL with P45L, W46L, E91K
notes: as for B1
Consider B4, for which binding was characterised by a dissociation constant (Kd) of 77 pM.

B5: A37 (antibody, human IgG1, V domains shown)
VH: B1 VH with R38K, A40R, E52D, I58T, M70I, R72T, V79A, M81L, W105V
VL: B1 VL with L13A, L21M, I57V, F70Y, L77V, E91S
notes: as for B1
Regarding B5, binding was characterised by a dissociation constant (Kd) of 34 pM. Compared with the last molecule, the Kd is about 2.3-fold lower.

B6: A38 (antibody, human IgG1, V domains shown)
VH: B1 VH with R38K, A40R, M48I, E52D, I58T, M70I, R72T, M81L, W105V
VL: B1 VL with L13A, L21M, I57V, F70Y, L77V, E91S
notes: as for B1
B6 had a Kd of 103 pM. This Kd is about 3-fold higher than that of the molecule before.

B7: A36 (antibody, human IgG1, V domains shown)
VH: B1 VH with M48I, E52D, I58T, M70I, R72T, V79A, M81L, W105V
VL: B1 VL with L13A, L21M, I57V, F70Y, L77V, E91S
notes: as for B1
B7 showed a Kd of less than 50 pM.

B8: A124 (antibody, human IgG1, V domains shown)
VH: B1 VH with A40R, M48I, E52D, I58T, A68V, M70I, R72T, V79A, M81L, W105V
VL: B1 VL with P45L, W46L, E91K
notes: as for B1
Molecule B8 returned a Kd of 91 pM. This lies in the picomolar range.

B9: A153 (antibody, human IgG1, V domains shown)
VH: B1 VH with V66G, A68V, V79A
VL: B1 VL
notes: as for B1
Molecule B9 showed a Kd of 49 pM.

B10: A149 (antibody, human IgG1, V domains shown)
VH: B1 VH
VL: B1 VL with W46L
notes: as for B1
With B10, binding was put at a Kd of 48 pM.

B11: A121 (antibody, human IgG1, V domains shown)
VH: B1 VH with A40R, E52D, I58T, M70I, R72T, V79A, M81L, W105V
VL: B1 VL with P45L, W46L, E91K
notes: as for B1
Regarding B11, the Kd came to 106 pM.

B12: A155 (antibody, human IgG1, V domains shown)
VH: B1 VH with A68V
VL: B1 VL
notes: as for B1
In turn, B12 gave a Kd of 67 pM.

B13: A146 (antibody, human IgG1, V domains shown)
VH: B1 VH with R38K, V66G, A68V
VL: B1 VL with W46L
notes: as for B1
B13 gave a Kd of 65 pM.

B14: A120 (antibody, human IgG1, V domains shown)
VH: B1 VH with I58V, V66G, A68V
VL: B1 VL
notes: as for B1
On to B14, for which the affinity, expressed as Kd, was 85 pM.

B15: A150 (antibody, human IgG1, V domains shown)
VH: B1 VH with V66G
VL: B1 VL with W46L
notes: as for B1
The molecule B15 returned a Kd of 59 pM.

B16: A123 (antibody, human IgG1, V domains shown)
VH: B1 VH with A40R, M48I, E52D, I58T, A68V, M70I, V79A, M81L, W105V
VL: B1 VL with P45L, W46L, E91K
notes: as for B1
B16 gave a Kd of 104 pM.

B17: A134 (antibody, human IgG1, V domains shown)
VH: B1 VH
VL: B1 VL with W46L, E91K
notes: as for B1
B17 showed a Kd of 55 pM.

B18: A147 (antibody, human IgG1, V domains shown)
VH: B1 VH with R38K, A40R, V66G, A68V
VL: B1 VL with W46L
notes: as for B1
In the case of B18, binding was characterised by a dissociation constant (Kd) of 63 pM.

B19: A125 (antibody, human IgG1, V domains shown)
VH: B1 VH with R38K, A40R, E52D, I58T, M70I, V79A, M81L, W105V
VL: B1 VL with P45L, W46L, E91K
notes: as for B1
B19 came in with a Kd of 116 pM.

B20: A117 (antibody, human IgG1, V domains shown)
VH: B1 VH with E52D, V66G, A68V
VL: B1 VL
notes: as for B1
For the molecule B20, the Kd is 94 pM.

B21: A118 (antibody, human IgG1, V domains shown)
VH: B1 VH with M48I, E52D, V66G, A68V
VL: B1 VL
notes: as for B1
In the case of B21, the dissociation constant Kd amounted to 83 pM. The Kd values of the last two molecules are within 1.5-fold of each other.

B22: A128 (antibody, human IgG1, V domains shown)
VH: B1 VH with A40R, E52D, I58T, A68V, M70I, V79A, M81L, W105V
VL: B1 VL with P45L, W46L, E91K
notes: as for B1
The molecule B22 returned a Kd of 111 pM. The Kd values of the last two molecules are within 1.5-fold of each other.

B23: A122 (antibody, human IgG1, V domains shown)
VH: B1 VH with A40R, M48I, E52D, I58T, M70I, V79A, M81L, W105V
VL: B1 VL with P45L, W46L, E91K
notes: as for B1
B23 displayed a Kd of 112 pM.

B24: A154 (antibody, human IgG1, V domains shown)
VH: B1 VH with R38K, V66G, A68V
VL: B1 VL
notes: as for B1
With B24, the Kd amounted to 66 pM. This Kd is about 1.7-fold lower than that of the molecule before.

B25: A119 (antibody, human IgG1, V domains shown)
VH: B1 VH with I58T, V66G, A68V
VL: B1 VL
notes: as for B1
With B25, the affinity, expressed as Kd, was 87 pM.

B26: A139 (antibody, human IgG1, V domains shown)
VH: B1 VH with A40R, E52D, I58T, A68V, M70I, R72T, V79A, M81L, W105V
VL: B1 VL with P45L, W46L, E91S, G92R
notes: as for B1
Consider B26, for which the Kd was 74 pM. The Kd values of the last two molecules are within 1.5-fold of each other.

B27: A140 (antibody, human IgG1, V domains shown)
VH: B1 VH with A40R, E52D, I58T, A68V, M70I, R72T, V79A, M81L, W105V
VL: B1 VL with P45L, W46L
notes: as for B1
Molecule B27 registered a dissociation constant (Kd) of 73 pM.

B28: A143 (antibody, human IgG1, V domains shown)
VH: B1 VH with V66G, A68V
VL: B1 VL with P45L, W46L
notes: as for B1
As to B28, the affinity, expressed as Kd, was 85 pM. This Kd and that of the molecule before are within 1.5-fold of each other.

B29: A133 (antibody, human IgG1, V domains shown)
VH: B1 VH with A68V
VL: B1 VL with W46L, E91K
notes: as for B1
Molecule B29 displayed a Kd of 58 pM.

B30: A127 (antibody, human IgG1, V domains shown)
VH: B1 VH with R38K, A40R, E52D, I58T, A68V, M70I, R72T, V79A, M81L, W105V
VL: B1 VL with P45L, W46L, E91K
notes: as for B1
In turn, B30 gave a Kd of 70 pM.

B31: A145 (antibody, human IgG1, V domains shown)
VH: B1 VH with V66G, A68V, V79A
VL: B1 VL with W46L
notes: as for B1
B31 gave a Kd of 70 pM.

B32: A152 (antibody, human IgG1, V domains shown)
VH: B1 VH with V66G, M70I, R72T
VL: B1 VL with W46L
notes: as for B1
In turn, B32 showed a Kd of 58 pM.

B33: A126 (antibody, human IgG1, V domains shown)
VH: B1 VH with R38K, A40R, E52D, I58T, A68V, M70I, V79A, M81L, W105V
VL: B1 VL with P45L, W46L, E91K
notes: as for B1
B33 registered a Kd of 123 pM. This Kd lies about 2.1-fold higher than the previous one.

B34: A129 (antibody, human IgG1, V domains shown)
VH: B1 VH with A40R, E52D, I58T, A68V, M70I, R72T, V79A, M81L, W105V
VL: B1 VL with P45L, W46L, E91K
notes: as for B1
Regarding B34, the Kd came to 99 pM.

B35: A138 (antibody, human IgG1, V domains shown)
VH: B1 VH
VL: B1 VL with P45L, W46L, E91S, G92R
notes: as for B1
As for B35, the Kd worked out at 69 pM. The Kd values of the last two molecules are within 1.5-fold of each other.

B36: A135 (antibody, human IgG1, V domains shown)
VH: B1 VH with V66G, A68V, V79A
VL: B1 VL with W46L, E91K
notes: as for B1
The molecule B36 gave a Kd of 56 pM.

B37: A132 (antibody, human IgG1, V domains shown)
VH: B1 VH with V66G
VL: B1 VL with W46L, E91K
notes: as for B1
The molecule B37 showed a Kd of 62 pM.

B38: A142 (antibody, human IgG1, V domains shown)
VH: B1 VH with A40R, E52D, I58T, A68V, M70I, V79A, M81L, W105V
VL: B1 VL with P45L, W46L
notes: as for B1
With B38, the Kd was 126 pM. This Kd lies about 2-fold higher than the previous one.

B39: A116 (antibody, human IgG1, V domains shown)
VH: B1 VH with A68V, M70I
VL: B1 VL
notes: as for B1
In turn, B39 returned a Kd of 53 pM. Against the preceding molecule, the Kd is about 2.4-fold lower.

B40: A136 (antibody, human IgG1, V domains shown)
VH: B1 VH with R38K, V66G, A68V
VL: B1 VL with W46L, E91K
notes: as for B1
On to B40, for which binding was put at a Kd of 53 pM.

B41: A137 (antibody, human IgG1, V domains shown)
VH: B1 VH with A68V
VL: B1 VL with P45L, W46L, E91S, G92R
notes: as for B1
Regarding B41, the dissociation constant (Kd) worked out at 50 pM.

B42: A151 (antibody, human IgG1, V domains shown)
VH: B1 VH with M70I
VL: B1 VL with W46L
notes: as for B1
The molecule B42 gave a Kd of 57 pM.

B43: A141 (antibody, human IgG1, V domains shown)
VH: B1 VH with A40R, E52D, I58T, A68V, M70I, V79A, M81L, W105V
VL: B1 VL with P45L, W46L, E91S, G92R
notes: as for B1
In turn, B43 displayed a Kd of 108 pM.

B44: A130 (antibody, human IgG1, V domains shown)
VH: B1 VH with A68V
VL: B1 VL
notes: as for B1
For the molecule B44, the affinity, expressed as Kd, was 75 pM.
